We go through 2 molecules from patent publication US20070054848A1, “Composition and method for nerve regeneration” (priority 2003, published 2007).

Experiment [1] concerns RhoA complexed with Rho GDI. Nature of the experiment: In vitro nucleotide exchange assay. Format: biochemical. Conditions: high Mg2+ concentrations; 90 nM Dbl. As to the method:
Lipid-modified RhoA was purified from yeast membranes as described (Forget, M. A., Desrosiers, R. R., Gingras, D. & Beliveau, R., Biochem. J. 361, 243-54(2002)). [^3H]GDP- or GDP-RhoA complexed with Rho GDI was obtained by first incubating GDP-RhoA with or without [^3H]GDP, followed by incubation with Rho GDI for 30 min, as described previously (Takahashi, K. et al., J. Biol. Chem. 272, 23371-23375 (1997)). The sample, subjected to gel filtration, was equilibrated with 20 mM Tris-HCl (pH 7.5) containing 5 mM MgCl2, 1 mM dithiothreitol and 0.1% CHAPS. The GDP dissociation and GTP binding assays were carried out by the filter binding method as described previously (Hart, M. J., Eva, A., Evans, T., Aaronson, S. A. & Cerione, R. A., Nature 354, 311-314 (1991)). In the [^3H]GDP dissociation assay, 50 nM of the complex was incubated for 20 min with various concentrations of GST-fused proteins in a reaction mixture (50 μl) containing 30 mM Tris-HCl (pH 7.5), 5 mM or 0.5 μM MgCl2, 1 (for low Mg) or 10 (for high Mg) mM EDTA, 0.1 mM GTP, 1 mM dithiothreitol, 0.12% CHAPS and 0.2 mg/ml bovine serum albumin. In the [^35S] GTPγS binding assay, the complex was incubated as described above except that 1 μM [^35S] GTPγS was used instead of 0.1 mM GTP. At the indicated time, an aliquot of the reaction sample was removed, and passed through nitrocellulose filters (IPVH 000, Millipore). […]

Experiment [2] relates to nerve regeneration. Nature of the experiment: Similar experiments with modified amino acid agents (Example 2-8). How it is done: Similar experiments were carried out using Pep5 in which alanine was added to the C terminus of the sequence (SEQ ID NO: 2), antibodies for the extracellular domain of p75, and p75 in which alanine was replaced with valine at amino acid 423 in positions 273-427 of SEQ ID NO: 4.

B1: p75 ICD: intracellular domain (ICD) of p75, GST-fused (protein)
chain: KRWNSCKQNKQGANSRPVNQTPPPEGEKLHSDSGISVDSQSLHDQQTHTQTASGQALKGDGNLYSSLPLTKREEVEKLLNGDTWRHLAGELGYQPEHIDSFTHEACPVRALLASWGAQDSATLDALLAALRRIQRADIVESLCSESTATSPV
modifications: left off: a dimerising Fc or GST
notes: intracellular domain (ICD) of p75, GST-fused
Turning to B1, the “Dbl stimulated dissociation of GDP from GDP-RhoA complexed with Rho GDI” value in experiment [1] is reported as “showed the inhibitory effect to the same extent as p75 HD”.

B2: p75 in which alanine was replaced with valine at amino acid 423: p75 with alanine replaced with valine at amino acid 423 in positions 273-427 of SEQ ID NO: 4 (protein, listed as Homo sapiens)
chain: KRWNSCKQNKQGANSRPVNQTPPPEGEKLHSDSGISVDSQSLHDQQPHTQTASGQALKGDGGLYSSLPPAKREEVEKLLNGSAGDTWRHLAGELGYQPEHIDSFTHEACPVRALLASWATQDSATLDALLAALRRIQRADLVESLCSESTVTSPV
As to B2, the nerve regeneration entry in experiment [2] is “nerve regeneration was similarly observed”.
